# Experimental data published in the supplement of paper PMC5998384.
# Key:
# HeLa Kyoto [1] = assay: solubility in G1/S (NP-40 vs SDS abundance) (log2 ratio); higher = more soluble; conditions: cell cycle stage: G1/S
# HeLa Kyoto [2] = assay: solubility change mitosis vs G1/S (difference of NP-40 vs SDS log2 ratios) (log2 ratio difference); higher = more soluble in mitosis
# 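Wherever solubility change mitosis vs G1/S (difference of NP-40 vs SDS log2 ratios) is given: synchronized HeLa Kyoto cells (double thymidine block for G1/S, nocodazole release for mitosis), protein amounts in NP-40 versus SDS lysates quantified by mass spectrometry, three biological replicates.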
# 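Wherever solubility in G1/S (NP-40 vs SDS abundance) is given: HeLa Kyoto cells arrested at G1/S by double thymidine block, proteins quantified by TMT10plex mass spectrometry in mild NP-40 versus SDS extracts, three biological replicates.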
sequence,measurement,setting,value
MASQLQVFSPPSVSSSAFCSAKKLKIEPSGWDVSGQSSNDKYYTHSKTLPATQGQANSSHQVANFNIPAYDQGLLLPAPAVEHIVVTAADSSGSAATSTFQSSQTLTHRSNVSLLEPYQKCGLKRKSEEVDSNGSVQIIEEHPPLMLQNRTVVGAAATTTTVTTKSSSSSGEGDYQLVQHEILCSMTNSYEVLEFLGRGTFGQVAKCWKRSTKEIVAIKILKNHPSYARQGQIEVSILSRLSSENADEYNFVRSYECFQHKNHTCLVFEMLEQNLYDFLKQNKFSPLPLKYIRPILQQVATALMKLKSLGLIHADLKPENIMLVDPVRQPYRVKVIDFGSASHVSKAVCSTYLQSRYYRAPEIILGLPFCEAIDMWSLGCVIAELFLGWPLYPGASEYDQIRYISQTQGLPAEYLLSAGTKTTRFFNRDPNLGYPLWRLKTPEEHELETGIKSKEARKYIFNCLDDMAQVNMSTDLEGTDMLAEKADRREYIDLLKKMLTIDADKRITPLKTLNHQFVTMTHLLDFPHSNHVKSCFQNMEICKRRVHMYDTVSQIKSPFTTHVAPNTSTNLTMSFSNQLNTVHNQASVLASSSTAAAATLSLANSDVSLLNYQSALYPSSAAPVPGVAQQGVSLQPGTTQICTQTDPFQQTFIVCPPAFQTGLQATTKHSGFPVRMDNAVPIVPQAPAAQPLQIQSGVLTQGSCTPLMVATLHPQVATITPQYAVPFTLSCAAGRPALVEQTAAVLQAWPGGTQQILLPSTWQQLPGVALHNSVQPTAMIPEAMGSGQQLADWRNAHSHGNQYSTIMQQPSLLTNHVTLATAQPLNVGVAHVVRQQQSSSLPSKKNKQSAPVSSKSSLDVLPSQVYSLVGSSPLRTTSSYNSLVPVQDQHQPIIIPDTPSPPVSVITIRSDTDEEEDNKYKPSSSGLKPRSNVISYVTVNDSPDSDSSLSSPYSTDTLSALRGNSGSVLEGPGRVVADGTGTRTIIVPPLKTQLGDCTVATQASGLLSNKTKPVASVSGQSSGCCITPTGYRAQRGGTSAAQPLNLSQNQQSSAAPTSQERSSNPAPRRQQAFVAPLSQAPYTFQHGSPLHSTGHPHLAPAPAHLPSQAHLYTYAAPTSAAALGSTSSIAHLFSPQGSSRHAAAYTTHPSTLVHQVPVSVGPSLLTSASVAPAQYQHQFATQSYIGSSRGSTIYTGYPLSPTKISQYSYL [HIPK1],solubility in G1/S (log2),HeLa Kyoto [1],0.478
same,solubility change mitosis (log2),HeLa Kyoto [2],-0.386
MASSHSSSPVPQGSSSDVFFKIEVDPSKHIRPVPSLPDVCPKEPTGDSHSLYVAPSLVTDQHRWTVYHSKVNLPAALNDPRLAKRESDFFTKTWGLDFVDTEVIPSFYLPQISKEHFTVYQQEISQREKIHERCKNICPPKDTFERTLLHTHDKSRTDLEQVPKIFMKPDFALDDSLTFNSVLPWSHFNTAGGKGNRDAASSKLLQEKLSHYLDIVEVNIAHQISLRSEAFFHAMTSQHELQDYLRKTSQAVKMLRDKIAQIDKVMCEGSLHILRLALTRNNCVKVYNKLKLMATVHQTQPTVQVLLSTSEFVGALDLIATTQEVLQQELQGIHSFRHLGSQLCELEKLIDKMMIAEFSTYSHSDLNRPLEDDCQVLEEERLISLVFGLLKQRKLNFLEIYGEKMVITAKNIIKQCVINKVSQTEEIDTDVVVKLADQMRMLNFPQWFDLLKDIFSKFTIFLQRVKATLNIIHSVVLSVLDKNQRTRELEEISQQKNAAKDNSLDTEVAYLIHEGMFISDAFGEGELTPIAVDTTSQRNASPNSEPCSSDSVSEPECTTDSSSSKEHTSSSAIPGGVDIMVSEDMKLTDSELGKLANNIQELLYSASDICHDRAVKFLMSRAKDGFLEKLNSMEFITLSRLMETFILDTEQICGRKSTSLLGALQSQAIKFVNRFHEERKTKLSLLLDNERWKQADVPAEFQDLVDSLSDGKIALPEKKSGATEERKPAEVLIVEGQQYAVVGTVLLLIRIILEYCQCVDNIPSVTTDMLTRLSDLLKYFNSRSCQLVLGAGALQVVGLKTITTKNLALSSRCLQLIVHYIPVIRAHFEARLPPKQYSMLRHFDHITKDYHDHIAEISAKLVAIMDSLFDKLLSKYEVKAPVPSACFRNICKQMTKMHEAIFDLLPEEQTQMLFLRINASYKLHLKKQLSHLNVINDGGPQNGLVTADVAFYTGNLQALKGLKDLDLNMAEIWEQKR [VPS54],solubility in G1/S (log2),HeLa Kyoto [1],-0.136
same,solubility change mitosis (log2),HeLa Kyoto [2],0.126
MASSLLAGERLVRALGPGGELEPERLPRKLRAELEAALGKKHKGGDSSSGPQRLVSFRLIRDLHQHLRERDSKLYLHELLEGSEIYLPEVVKPPRNPELVARLEKIKIQLANEEYKRITRNVTCQDTRHGGTLSDLGKQVRSLKALVITIFNFIVTVVAAFVCTYLGSQYIFTEMASRVLAALIVASVVGLAELYVMVRAMEGELGEL [TMEM199],solubility in G1/S (log2),HeLa Kyoto [1],-0.349
same,solubility change mitosis (log2),HeLa Kyoto [2],-0.0986
MASTRSIELEHFEERDKRPRPGSRRGAPSSSGGSSSSGPKGNGLIPSPAHSAHCSFYRTRTLQALSSEKKAKKARFYRNGDRYFKGLVFAISSDRFRSFDALLIELTRSLSDNVNLPQGVRTIYTIDGSRKVTSLDELLEGESYVCASNEPFRKVDYTKNINPNWSVNIKGGTSRALAAASSVKSEVKESKDFIKPKLVTVIRSGVKPRKAVRILLNKKTAHSFEQVLTDITEAIKLDSGVVKRLCTLDGKQVTCLQDFFGDDDVFIACGPEKFRYAQDDFVLDHSECRVLKSSYSRSSAVKYSGSKSPGPSRRSKSPASVNGTPSSQLSTPKSTKSSSSSPTSPGSFRGLKQISAHGRSSSNVNGGPELDRCISPEGVNGNRCSESSTLLEKYKIGKVIGDGNFAVVKECIDRSTGKEFALKIIDKAKCCGKEHLIENEVSILRRVKHPNIIMLVEEMETATELFLVMELVKGGDLFDAITSSTKYTERDGSAMVYNLANALRYLHGLSIVHRDIKPENLLVCEYPDGTKSLKLGDFGLATVVEGPLYTVCGTPTYVAPEIIAETGYGLKVDIWAAGVITYILLCGFPPFRSENNLQEDLFDQILAGKLEFPAPYWDNITDSAKELISQMLQVNVEARCTAGQILSHPWVSDDASQENNMQAEVTGKLKQHFNNALPKQNSTTTGVSVIMNTALDKEGQIFCSKHCQDSGRPGMEPISPVPPSVEEIPVPGEAVPAPTPPESPTPHPPPAAPGGERAGTWRRHRD [DCLK2],solubility in G1/S (log2),HeLa Kyoto [1],-0.0668
same,solubility change mitosis (log2),HeLa Kyoto [2],-0.0347
MATLIYVDKENGEPGTRVVAKDGLKLGSGPSIKALDGRSQVSTPRFGKTFDAPPALPKATRKALGTVNRATEKSVKTKGPLKQKQPSFSAKKMTEKTVKAKSSVPASDDAYPEIEKFFPFNPLDFESFDLPEEHQIAHLPLSGVPLMILDEERELEKLFQLGPPSPVKMPSPPWESNLLQSPSSILSTLDVELPPVCCDIDI [PTTG1],solubility in G1/S (log2),HeLa Kyoto [1],0.176
same,solubility change mitosis (log2),HeLa Kyoto [2],0.554
MATLWGGLLRLGSLLSLSCLALSVLLLAQLSDAAKNFEDVRCKCICPPYKENSGHIYNKNISQKDCDCLHVVEPMPVRGPDVEAYCLRCECKYEERSSVTIKVTIIIYLSILGLLLLYMVYLTLVEPILKRRLFGHAQLIQSDDDIGDHQPFANAHDVLARSRSRANVLNKVEYAQQRWKLQVQEQRKSVFDRHVVLS [TMEM9B],solubility in G1/S (log2),HeLa Kyoto [1],-0.235
same,solubility change mitosis (log2),HeLa Kyoto [2],-0.12
MAVAVGRPSNEELRNLSLSGHVGFDSLPDQLVNKSTSQGFCFNILCVGETGIGKSTLMDTLFNTKFESDPATHNEPGVRLKARSYELQESNVRLKLTIVDTVGFGDQINKDDSYKPIVEYIDAQFEAYLQEELKIKRSLFNYHDTRIHACLYFIAPTGHSLKSLDLVTMKKLDSKVNIIPIIAKADTIAKNELHKFKSKIMSELVSNGVQIYQFPTDEETVAEINATMSVHLPFAVVGSTEEVKIGNKMAKARQYPWGVVQVENENHCDFVKLREMLIRVNMEDLREQTHTRHYELYRRCKLEEMGFKDTDPDSKPFSLQETYEAKRNEFLGELQKKEEEMRQMFVMRVKEKEAELKEAEKELHEKFDLLKRTHQEEKKKVEDKKKELEEEVNNFQKKKAAAQLLQSQAQQSGAQQTKKDKDKKNASFT [SEPT11],solubility in G1/S (log2),HeLa Kyoto [1],-0.0512
same,solubility change mitosis (log2),HeLa Kyoto [2],0.12
MAVTKELLQMDLYALLGIEEKAADKEVKKAYRQKALSCHPDKNPDNPRAAELFHQLSQALEVLTDAAARAAYDKVRKAKKQAAERTQKLDEKRKKVKLDLEARERQAQAQESEEEEESRSTRTLEQEIERLREEGSRQLEEQQRLIREQIRQERDQRLRGKAENTEGQGTPKLKLKWKCKKEDESKGGYSKDVLLRLLQKYGEVLNLVLSSKKPGTAVVEFATVKAAELAVQNEVGLVDNPLKISWLEGQPQDAVGRSHSGLSKGSVLSERDYESLVMMRMRQAAERQQLIARMQQEDQEGPPT [DNAJC17],solubility in G1/S (log2),HeLa Kyoto [1],0.702
same,solubility change mitosis (log2),HeLa Kyoto [2],0.205
